Experiments:
[1] = molecular target: T1, Full length UL16 on transfected 293 EBNA cells (human cytomegalovirus, UniProt P16757 27-230); test: flow cytometry on 293 EBNA cells transfected with full length UL16
T1 construct: whole, on cells; also called UL16 FL
T1 sequence: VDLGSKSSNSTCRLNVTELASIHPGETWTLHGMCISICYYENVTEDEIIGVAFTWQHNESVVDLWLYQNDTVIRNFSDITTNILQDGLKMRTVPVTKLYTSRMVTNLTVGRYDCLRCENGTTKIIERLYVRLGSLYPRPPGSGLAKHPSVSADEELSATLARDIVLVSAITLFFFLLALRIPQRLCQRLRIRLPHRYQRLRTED

[2] = molecular target: T2, NKG2D/Dap10 on transfected 293E cells (UniProt P26718 1-216; Q9UBK5 19-93); test: flow cytometry, transfected 293 EBNA cells, 2 µg Fc protein + goat anti-human IgG PE
T2 construct: whole, on cells; Co-expressed on 293 EBNA (293E) cells from the pDC409 vector; also called NKG2D+FLAG tagged Dap10
T2 sequence 1: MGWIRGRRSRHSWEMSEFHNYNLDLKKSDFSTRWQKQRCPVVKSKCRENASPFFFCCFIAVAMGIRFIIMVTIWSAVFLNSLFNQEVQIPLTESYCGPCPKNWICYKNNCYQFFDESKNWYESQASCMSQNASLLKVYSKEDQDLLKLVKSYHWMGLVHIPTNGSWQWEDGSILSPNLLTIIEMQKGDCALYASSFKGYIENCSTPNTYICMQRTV
T2 sequence 2: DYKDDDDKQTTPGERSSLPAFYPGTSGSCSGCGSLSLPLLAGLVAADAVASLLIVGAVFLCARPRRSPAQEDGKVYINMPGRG

[3] = molecular target: T3, NKG2D alone on transfected 293 EBNA cells (UniProt P26718 1-216, limits assumed); test: as above
T3 construct: whole, on cells
T3 sequence (looked up): T2 sequence 1

[4] = molecular target: T4, FLAG tagged Dap10 alone on transfected 293 EBNA cells (UniProt Q9UBK5 19-93); test: as above
T4 construct: whole, on cells
T4 sequence: T2 sequence 2

[5] = molecular target: T1, Full length UL16 on transfected 293 …; test: as above
[6] = molecular target: T2, NKG2D/Dap10 on transfected 293E cells; test: flow cytometry; NKG2D/Dap10-transfected 293E cells preincubated with 25 µg ULBP1/LZ (competitor)
[7] = molecular target: T2, NKG2D/Dap10 on transfected 293E cells; test: flow cytometry; NKG2D/Dap10-transfected 293E cells preincubated with 25 µg hCD40L/LZ (control blocking protein)

B1: ULBP3/Fc (Fc fusion)
chain: DAHSLWYNFTIIHLPRHGQQWCEVQSQVDQKNFLSYDCGSDKVLSMGHLEEQLYATDAWGKQLEMLREVGQRLRLELADTELEDFTPSGPLTLQVRMSCECEADGYIRGSWQFSFDGRKFLLFDSNNRKWTVVHAGARRMKEKWEKDSGLTTFFKMVSMRDCKSWLRDFLMHRKKRLEPTAPPTMAPG
notes: That entry lacks the first five residues of the leader and still holds the rest of the signal peptide and the GPI signal; not shown: Fc portion of ULBP3/Fc is not described
binding result [1]: no binding (tested: 2 µg) | Mean Fluorescence Intensity (MFI) [2]: 102 MFI | Mean Fluorescence Intensity (MFI) [3]: 9.55 MFI | Mean Fluorescence Intensity (MFI) [4]: 14 MFI | Mean Fluorescence Intensity (MFI) [5]: 11.9 MFI | Mean Fluorescence Intensity (MFI) [6]: 13 MFI | Mean Fluorescence Intensity (MFI) [7]: 267 MFI

Source: patent US20030147847A1 (IMMUNEX, published 2003)
